Experimental data reported in patent publication US20110312522A1, “METHODS OF DETECTION OF CANCER USING PEPTIDE PROFILES” (Sloan-Kettering Institute for Cancer Research, priority 2005, published 2011).
Ends that are not written are not given here.

Experiments:
[1] = Degradation of synthetic peptides added to fresh plasma, MALDI-TOF MS read-out; format: in vitro ADME, human
Method: In an effort to begin to understand the presence and roles of exoproteases, synthetic C3f was added to fresh plasma at a concentration close to that observed in serum. […] The resulting pattern was similar to the endogenous one observed in serum and also illustrated the disparate ion intensities for different rungs in the ladder.

[2] = Degradation of synthetic peptides in control serum and plasma (MALDI-TOF MS-based protease assay); format: in vitro ADME, human
From the text: A large part of the human serum ‘peptidome’, as detected by MALDI-TOF MS, is generated ex vivo (i.e., after blood collection) by protease degradation of blood proteins. Endoproteases produce ‘founder peptides’ which are then pared down by exoproteases into ladder-like clusters. Panels of proteolytic activity in the blood contribute important cancer type-specific information, and that the resulting metabolic patterns have utility as surrogate markers for detection and classification of cancer. Degradation occurs during clotting. The use of exogenous synthetic peptides, identical to previously observed founder peptides, can be used to monitor cancer-specific proteolytic degradation in plasma or serum that contains proteases. Conditions in terms of time, temperature and added amounts of substrates can hereby be readily controlled. Coupled to a MALDI-based read-out, such analyses are blood “protease assays” to monitor the tumor-dependent activities inferred from prior studies. Simultaneous addition of non-degradable, exogenous reference peptides also enables relative quantitation of all rungs in the ladders.
The degradation conditions and times were studied for C3f and FPA in serum and plasma as described above. […] 2 picomoles [^13C-Leu]-labeled C3f was incubated for 30 min at RT with […] aliquots of serum from 20 different breast cancer patients and 20 control samples. […]

Substance	exoproteolytic degradation in plasma (in words) [1]	degradation in control serum and plasma (in words) [2]	degradation time [2]
FPB: fibrinopeptide B, added to plasma like synthetic FPA (QGVNDNEEGFFSAR; ends and bridges not checked; UniProt P02675 31-44, looked up)	completely degraded in just a few minutes	–	–
FPA: synthetic fibrinopeptide A, N-terminally cleaved from fibrinogen by thrombin (ADSGEGDFLAEGGGVR; Fibrinopeptide A; UniProt P02671 20-35, looked up)	followed a similar time course	readily degraded	up to 4 hours
